Measurements from the supplement of paper PMC9170038.

test system: K4 kissing-loop RNA reporter; experiment: apparent KD of K4 kissing-loop reporter; higher = weaker reporter binding; conditions: Eterna round: R107; input ligand: arginine 13.2 mM
Method: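 RNA-MaP round R107: designed RNA switches with theophylline, tryptophan, arginine or FMN aptamers are transcribed on-chip within common flanks. They are titrated with a labelled K4 kissing-loop RNA reporter in RNA-MaP buffer (100 mM Tris pH 7.5, 80 mM KCl, 4 mM MgCl2), without ligand or with the indicated ligand. Median apparent KD per design.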
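Further: bound reporter read as fluorescence of individual clusters on recovered sequencing chips by microscopy, with normalized cluster intensities fitted with a binding model.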

Sequence	apparent KD of K4 kissing-loop reporter [nM]
AAAAUUGCGGUCGAUAGAACUUUUUGCUUACGAGGACCGGUACGGCCGCCACUCGAGUCAAGUGAUGUUUGAUUUUCUAUUAUUA [JR_ExcTryptoA_Sub014]	166
UUUAACGAGUGAUGUUCGAAAAGUAAUGGUGAGGAUAUCGAUUUUUCGAGAAGGCACCUCGAAGUGAUACGAAAGUAUCGCUUCG [FMN A 4]	276
CCUUUCUGUUACGAUACCAGUCUAAUAUAUUUGAUCAAUACCCUCGCCGAGUGAUGUUCGGACCCUUGGCAGCGUCUGGGACAGG [aazwmullin]	438
GGAGGAGAAUAUGAUACCAGCAGAGAGAGAGAGGAAGUAUAGUGAUGUUAUAUGUGAGAAUGCCCUUGGCAGCAUAAGAAGAAGG [whbob_SS_Theo_B_sa87]	147
CAUAGACAAGUGAUGUUUGUCAUAACCGAAGGAGCGUCUUUAAAGACAGGUAGGUCGCGGAUUAAUUAAGUUAUUAUUCUUUUUA [JR_SSArginiA_Sub018]	494
UAGUCAUACAGAGGAUAUCGUAUGAGUGAUGUUCAUACGACAUAAUCAAAUUGUAUUGAUGUUCGACGAGAAGGCUGUAUGACUA [FMN B Ex t1]	103
GUGUAACGAGGAAACCUCGUUACACCCUCACGAGGACCGGUACGGCCGCCACUCGAGAGCUCGUGAGGAGUGAUGUUCCUCGUGA	335
GGGAGUAGUGCGGCCGCCACUGAGAAAGAAGAAGAAUAUAGUGAUGUUAUAUAGGAAAGGAAGAAUAGGACCGGGCAUUAGAUUU [SSTRyptB.J]	173
CCGGCCCAGCCGGAUACCAGUGCGCCGCAGGGAACGGCGGGCCCAGAGUGAUGUUCGGGACACCCUUGGCAGCCGCCUGGGUCCU [#2 Same State - Theophylline B Attempt #29 (HarryS)]	662
GCUAUGGUUGGAAGGAGCGUUGAAUUGUUGGUAAGAGUGAUGUUCGAUAGUGGAUAGUUGUAGCAGGUAGGUCGCCAACUAUAGC [KL-Arg B27]	367
ACAGUCGGCUGUGAUACCAGUCGUAUUACAACAUGUUGCAGUGAUGUUGCGAGAUAGGAUGACCCUUGGCAGCACUCAGUACGAU [Same State Theophylline B GF9]	99.7
UGAUACCAGACGGCCGCCACUACACCAGUCAAAGACUGGAUGUGAAAUUCGACCAGUGAUGUUGGUAGGACCGGGUCUGGUAUCU [TrypBX 8 #SwitchBubble #StaticStem]	313
AUUUAGACGAGUGAUGUUCGUGAUUUUUCAGAGGAUAUGCGUAAUAGCAGAAGGCUGUAUUUAUAUAUAUUUUGAUUUUUUUAAA [JR_ExcFMNA_Sub009]	81.6
CUGUCAUGGGAUGGGCCAGUGAUGUUGGGCCGAGGACCGGUACGGCCGCCACUCGUAGCACAGUGCGCGCUAGCAUUGUACGUCA [theeternabot_exclusion_KL_Trp_A_35]	629
AAUAAAAGAUGUUUAGGAAAGAAAAUGGAAGGAGCGUGCGAAAGCACAGGUAGGUCGCCAGUGAUGUUGGAACCUGAGCAUCAAA [#SwitchBubble 15 #K4Late]	479
GUCGGCCGCGCGCAAGCGCGGCCGGCCGAUACCAGCGCGCCGGCGCGCCCUUGGCAGCGGCGCCGAGUGAUGUUCGGCCUGACGU [#2 Same State - Theophylline A Attempt #7 (HarryS)]	538
AACACUCAGAGAGUGAUGUUCUCUAAUAAACGAGGACCGGUACGGCCGCCACUCGAAUAAGAGUGAGUCCUACGAAAAGUAGGAC [Omei inspired 5 #OpenEnded]	726
UCCUUUGUUGCCAGUGAUGUUGGACAGGAAGGAGCGGGCAUAAGCCCAGGUAGGUCGCCUGUCAACUUUCUUAUAGCCCGAAGGU [KL-XArg-A19]	352
UGUAUGUGAUUUGAUACCAGACCAGCUGGUGUUUCAAGAGUGAUGUUCUUGUAGGUUUGGGUCCCUUGGCAGCAAAUCGCAUACU [KL-SSTheoB15]	122
CUGACGAUGACACGGUGGCCGCUGGUCGUGCGAGGACCGGUACGGCCGCCACUCGCAUGAGUGAUGUUCAUGUGUCGUCGUCGUC [#08 K4 Tryptophan A Exclusion]	101
UACUUAUAUUUCAACUUAAAUUAUUCAGAAGGAGCGUGAUCAUUCACAGGUAGGUCGCUGAACUAGUGAUGUUAGUUUUAAUUUU [JR_Nu_ExcArginiA_Sub022]	127
UGGACCUGACUCGAUAAGAGUCAAGGAGAUACCAGCCACGAAAGUGGCCCUUGGCAGCUCUGCCAGUGAUGUUGGUCAAGGUCCU [#SwitchBubble 7 #StaticStem]	696
CAUACGCAUGGAGGAUAUGAGAUUUUUCAUAUUAUUUUUUAUUCUCAGUGAUGUUGGGAUUUAUAAUCAGAAGGCCAUGUGUAUG [Ex FMN B 11]	79.2
AGUGUUGUAUGGCGGUUUGUCACUUAGGAUCAGGAUAUAUAAACAAAUAGAAGGGAUGGCGGAGUGAUGUUCCGCCGGCCGCCAU [FMN A Exl V7]	128
GGAUAGGACAGAGGAUAUCUCUGAGGCAAGAAAACUUGUCUCUAAAGAGAUGACUCAGUGAUGUUGGGAGAAGGCUGUCCUAUCG [FmnBX 10 - #SwitchBubble #StaticStem]	139
GCUGUCCAGUUCGAUACCAGAGUUAUCGCACUGUAGUGAUAAAGUGAUGUUUUAUCAGUCCUCCCUUGGCAGCGAUGCCCGGCUG [theeternabot_exclusion_KL_Theo_B_25]	151
